# Values of other authors in patent US7323168B2, “Immunotherapy for chronic myelocytic leukemia” (Immunomedics, Inc., priority 2000, dated 2008).
# Test system: IFN-γ levels
# Details: single intravenous dose 42.5 μg/kilogram, rhesus monkeys
molecule,measurement,value
"recombinant IL-12: recombinant interleukin-12 (protein, UniProt P29459 23-219; P29460 23-328, looked up) Interleukin-12 subunit alpha: RNLPVATPDPGMFPCLHHSQNLLRAVSNMLQKARQTLEFYPCTSEEIDHEDITKDKTSTVEACLPLELTKNESCLNSRETSFITNGSCLASRKTSFMMALCLSSIYEDLKMYQVEFKTMNAKLLMDPKRQIFLDQNMLAVIDELMQALNFNSETVPQKSSLEEPDFYKTKIKLCILLHAFRIRAVTIDRVMSYLNAS Interleukin-12 subunit beta: IWELKKDVYVVELDWYPDAPGEMVVLTCDTPEEDGITWTLDQSSEVLGSGKTLTIQVKEFGDAGQYTCHKGGEVLSHSLLLLHKKEDGIWSTDILKDQKEPKNKTFLRCEAKNYSGRFTCWWLTTISTDLTFSVKSSRGSSDPQGVTCGAATLSAERVRGDNKEYEYSVECQEDSACPAAEESLPIEVMVDAVHKLKYENYTSSFFIRDIIKPDPPKNLQLKPLKNSRQVEVSWEYPDTWSTPHSYFSLTFCVQVQGKSKREKKDRVFTDKTSATVICRKNASISVRAQDRYYSSSWSEWASVPCS",IFN-γ levels,elevated
